This note sets out measurements from patent US20230136228A1 (LAMKAP BIO ALPHA, published 2023).

The assay concerns the target T1, biotinylated recombinant human CEACAM5 protein (human, UniProt P06731 35-685, biotinylated in vitro with biotin ligase (Avitag)).
T1 construct: extracellular domain; also called recombinant CEA; CEA ECD; not shown: C-terminal Avitag and either a hexa-histidine tag, a human Fc region or a mouse Fc region; which one was used in the ELI
T1 sequence (looked up): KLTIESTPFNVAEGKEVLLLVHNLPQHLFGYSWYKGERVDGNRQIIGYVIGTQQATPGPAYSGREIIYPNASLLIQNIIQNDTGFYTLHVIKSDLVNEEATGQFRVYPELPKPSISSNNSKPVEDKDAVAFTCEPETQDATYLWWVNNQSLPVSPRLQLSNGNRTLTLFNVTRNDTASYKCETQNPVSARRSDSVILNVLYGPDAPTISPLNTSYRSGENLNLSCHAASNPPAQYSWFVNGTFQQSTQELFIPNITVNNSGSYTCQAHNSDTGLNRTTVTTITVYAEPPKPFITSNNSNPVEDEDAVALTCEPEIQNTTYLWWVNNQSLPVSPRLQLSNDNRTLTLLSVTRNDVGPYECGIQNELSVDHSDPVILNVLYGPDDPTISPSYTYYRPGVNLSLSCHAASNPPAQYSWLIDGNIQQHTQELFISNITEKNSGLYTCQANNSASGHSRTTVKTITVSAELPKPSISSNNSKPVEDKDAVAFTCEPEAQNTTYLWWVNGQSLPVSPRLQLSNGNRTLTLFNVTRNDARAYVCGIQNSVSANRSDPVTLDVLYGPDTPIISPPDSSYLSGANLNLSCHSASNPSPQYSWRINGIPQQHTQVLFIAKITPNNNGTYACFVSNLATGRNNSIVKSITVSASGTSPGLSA
In words: competition ELISA with reference antibodies.

B1: anti-CEA antibody C11 (antibody, human IgG1, kappa, V domains shown)
VH: EVQLVESGGGLVQPGGSLKLSCAASGFTFNTYAMNWVRQAPGKGLEWVGRIRSKYNNYATYYADSVKDRFTISRDDSKNTAYLQMNSLKTEDTAVYYCVRHGNFGNSYVSWFAYWGQGTLVTVSS
VL: DIQMTQSPSTLSASVGDRVTITCRASQLISNGLYWYQQKPGKAPKLLIYDASILESGVPSRFSGSGSGTEFTLTISSLQPDDFATYYCQQRLSWPLTFGQGTKVEIKR
notes: Bivalent monoclonal antibody; also called C11 mAb
B1: the binding result is “binds”.
